# In patent US20170051068A1 (Janssen / Centocor, published 2017):
# T1: Recombinant human BCMA-Fc fusion protein (R&D Systems catalog #193-BC-050) (human, UniProt Q02223 1-54)
# T1 construct: also called hBCMA-Fc; Fc-BCMA Hu; not shown: Fc part of the bought fusion protein
# T1 sequence: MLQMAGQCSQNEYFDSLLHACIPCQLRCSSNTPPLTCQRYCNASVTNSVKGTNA
# B1: BC3B7 (BCMA×CD3 bispecific antibody, BCMB117 × CD3B219) (bispecific antibody, human IgG4 S228P, lambda, F234A L235A)
# heavy 1: EVQLVESGGGLVQPGGSLRLSCAASGFTFNTYAMNWVRQAPGKGLEWVARIRSKYNNYATYYAASVKGRFTISRDDSKNSLYLQMNSLKTEDTAVYYCARHGNFGNSYVSWFAYWGQGTLVTVSSASTKGPSVFPLAPCSRSTSESTAALGCLVKDYFPEPVTVSWNSGALTSGVHTFPAVLQSSGLYSLSSVVTVPSSSLGTKTYTCNVDHKPSNTKVDKRVESKYGPPCPPCPAPEAAGGPSVFLFPPKPKDTLMISRTPEVTCVVVDVSQEDPEVQFNWYVDGVEVHNAKTKPREEQFNSTYRVVSVLTVLHQDWLNGKEYKCKVSNKGLPSSIEKTISKAKGQPREPQVYTLPPSQEEMTKNQVSLTCLVKGFYPSDIAVEWESNGQPENNYKTTPPVLDSDGSFLLYSKLTVDKSRWQEGNVFSCSVMHEALHNHYTQKSLSLSLGK
# light 1: QTVVTQEPSLTVSPGGTVTLTCRSSTGAVTTSNYANWVQQKPGQAPRGLIGGTNKRAPGTPARFSGSLLGGKAALTLSGVQPEDEAEYYCALWYSNLWVFGGGTKLTVLGQPKAAPSVTLFPPSSEELQANKATLVCLISDFYPGAVTVAWKADSSPVKAGVETTTPSKQSNNKYAASSYLSLTPEQWKSHRSYSCQVTHEGSTVEKTVAPTECS
# heavy 2: not shown
# light 2: SYVLTQPPSVSVAPGQTARITCGGNNIGSKSVHWYQQPPGQAPVVVVYDDSDRPSGIPERFSGSNSGNTATLTISRVEAGDEAVYYCQVWDSSSDHVVFGGGTKLTVLGQPKAAPSVTLFPPSSEELQANKATLVCLISDFYPGAVTVAWKADSSPVKAGVETTTPSKQSNNKYAASSYLSLTPEQWKSHRSYSCQVTHEGSTVEKTVAPTECS
# notes: also called BC3BY; B117 × B219
# B2: BC3B9 (BCMA×CD3 bispecific antibody, BCMB128 × CD3B219) (bispecific antibody, human IgG4 S228P, lambda, F234A L235A)
# heavy 1: EVQLVESGGGLVQPGGSLRLSCAASGFTFNTYAMNWVRQAPGKGLEWVARIRSKYNNYATYYAASVKGRFTISRDDSKNSLYLQMNSLKTEDTAVYYCARHGNFGNSYVSWFAYWGQGTLVTVSSASTKGPSVFPLAPCSRSTSESTAALGCLVKDYFPEPVTVSWNSGALTSGVHTFPAVLQSSGLYSLSSVVTVPSSSLGTKTYTCNVDHKPSNTKVDKRVESKYGPPCPPCPAPEAAGGPSVFLFPPKPKDTLMISRTPEVTCVVVDVSQEDPEVQFNWYVDGVEVHNAKTKPREEQFNSTYRVVSVLTVLHQDWLNGKEYKCKVSNKGLPSSIEKTISKAKGQPREPQVYTLPPSQEEMTKNQVSLTCLVKGFYPSDIAVEWESNGQPENNYKTTPPVLDSDGSFLLYSKLTVDKSRWQEGNVFSCSVMHEALHNHYTQKSLSLSLGK
# light 1: QTVVTQEPSLTVSPGGTVTLTCRSSTGAVTTSNYANWVQQKPGQAPRGLIGGTNKRAPGTPARFSGSLLGGKAALTLSGVQPEDEAEYYCALWYSNLWVFGGGTKLTVLGQPKAAPSVTLFPPSSEELQANKATLVCLISDFYPGAVTVAWKADSSPVKAGVETTTPSKQSNNKYAASSYLSLTPEQWKSHRSYSCQVTHEGSTVEKTVAPTECS
# heavy 2: not shown
# light 2: SYVLTQPPSVSVAPGQTARITCGGNNIGSKSVHWYQQPPGQAPVVVVYDDSDRPSGIPERFSGSNSGNTATLTISRVEAGDEAVYYCQVWDSSSDHVVFGGGTKLTVLGQPKAAPSVTLFPPSSEELQANKATLVCLISDFYPGAVTVAWKADSSPVKAGVETTTPSKQSNNKYAASSYLSLTPEQWKSHRSYSCQVTHEGSTVEKTVAPTECS
# notes: IgG4 made by Fab arm exchange; also called B128 × B219
# B3: BC3B11 (BCMA×CD3 bispecific antibody, BCMB176 × CD3B219) (bispecific antibody, human IgG4 S228P, lambda, F234A L235A)
# heavy 1: EVQLVESGGGLVQPGGSLRLSCAASGFTFNTYAMNWVRQAPGKGLEWVARIRSKYNNYATYYAASVKGRFTISRDDSKNSLYLQMNSLKTEDTAVYYCARHGNFGNSYVSWFAYWGQGTLVTVSSASTKGPSVFPLAPCSRSTSESTAALGCLVKDYFPEPVTVSWNSGALTSGVHTFPAVLQSSGLYSLSSVVTVPSSSLGTKTYTCNVDHKPSNTKVDKRVESKYGPPCPPCPAPEAAGGPSVFLFPPKPKDTLMISRTPEVTCVVVDVSQEDPEVQFNWYVDGVEVHNAKTKPREEQFNSTYRVVSVLTVLHQDWLNGKEYKCKVSNKGLPSSIEKTISKAKGQPREPQVYTLPPSQEEMTKNQVSLTCLVKGFYPSDIAVEWESNGQPENNYKTTPPVLDSDGSFLLYSKLTVDKSRWQEGNVFSCSVMHEALHNHYTQKSLSLSLGK
# light 1: QTVVTQEPSLTVSPGGTVTLTCRSSTGAVTTSNYANWVQQKPGQAPRGLIGGTNKRAPGTPARFSGSLLGGKAALTLSGVQPEDEAEYYCALWYSNLWVFGGGTKLTVLGQPKAAPSVTLFPPSSEELQANKATLVCLISDFYPGAVTVAWKADSSPVKAGVETTTPSKQSNNKYAASSYLSLTPEQWKSHRSYSCQVTHEGSTVEKTVAPTECS
# heavy 2: not shown
# light 2: SYVLTQPPSVSVAPGQTARITCGGNNIGSKSVHWYQQPPGQAPVVVVYDDSDRPSGIPERFSGSNSGNTATLTISRVEAGDEAVYYCQVWDSSSDHVVFGGGTKLTVLGQPKAAPSVTLFPPSSEELQANKATLVCLISDFYPGAVTVAWKADSSPVKAGVETTTPSKQSNNKYAASSYLSLTPEQWKSHRSYSCQVTHEGSTVEKTVAPTECS
# notes: IgG4 made by Fab arm exchange; also called B176 × B219
# B4: BC3B12 (BCMA×CD3 bispecific antibody, BCMB177 × CD3B219) (bispecific antibody, human IgG4 S228P, lambda, F234A L235A)
# heavy 1: EVQLVESGGGLVQPGGSLRLSCAASGFTFNTYAMNWVRQAPGKGLEWVARIRSKYNNYATYYAASVKGRFTISRDDSKNSLYLQMNSLKTEDTAVYYCARHGNFGNSYVSWFAYWGQGTLVTVSSASTKGPSVFPLAPCSRSTSESTAALGCLVKDYFPEPVTVSWNSGALTSGVHTFPAVLQSSGLYSLSSVVTVPSSSLGTKTYTCNVDHKPSNTKVDKRVESKYGPPCPPCPAPEAAGGPSVFLFPPKPKDTLMISRTPEVTCVVVDVSQEDPEVQFNWYVDGVEVHNAKTKPREEQFNSTYRVVSVLTVLHQDWLNGKEYKCKVSNKGLPSSIEKTISKAKGQPREPQVYTLPPSQEEMTKNQVSLTCLVKGFYPSDIAVEWESNGQPENNYKTTPPVLDSDGSFLLYSKLTVDKSRWQEGNVFSCSVMHEALHNHYTQKSLSLSLGK
# light 1: QTVVTQEPSLTVSPGGTVTLTCRSSTGAVTTSNYANWVQQKPGQAPRGLIGGTNKRAPGTPARFSGSLLGGKAALTLSGVQPEDEAEYYCALWYSNLWVFGGGTKLTVLGQPKAAPSVTLFPPSSEELQANKATLVCLISDFYPGAVTVAWKADSSPVKAGVETTTPSKQSNNKYAASSYLSLTPEQWKSHRSYSCQVTHEGSTVEKTVAPTECS
# heavy 2: not shown
# light 2: SYVLTQPPSVSVAPGQTARITCGGNNIGSKSVHWYQQPPGQAPVVVVYDDSDRPSGIPERFSGSNSGNTATLTISRVEAGDEAVYYCQVWDSSSDHVVFGGGTKLTVLGQPKAAPSVTLFPPSSEELQANKATLVCLISDFYPGAVTVAWKADSSPVKAGVETTTPSKQSNNKYAASSYLSLTPEQWKSHRSYSCQVTHEGSTVEKTVAPTECS
# notes: IgG4 made by Fab arm exchange; also called B177 × B219
# What was measured:
# [1] = molecular target: T2, Fc-fusion cyno BCMA (in-house; Cat# BCMW6.001) (cyno, UniProt Q02223 1-54 (human entry)); test: SPR, Fc-BCMA, two-state model, step 1 (koff1); first step (koff1)
# T2 construct: also called Fc-BCMA Cy; cyno Fc-BCMA; not shown: Fc part
# [2] = molecular target: T2, Fc-fusion cyno BCMA (in-house; Cat# …); test: SPR, cyno Fc-BCMA
# [3] = molecular target: T2, Fc-fusion cyno BCMA (in-house; Cat# …); test: SPR, Fc-BCMA, two-state model, step 2
# [4] = molecular target: T2, Fc-fusion cyno BCMA (in-house; Cat# …); test: SPR, Fc-BCMA, two-state model, first complex
# [5] = molecular target: T2, Fc-fusion cyno BCMA (in-house; Cat# …); test: SPR, Fc-BCMA, two-state model, Final KD; Final complex KD, two-state model
# [6] = molecular target: T2, Fc-fusion cyno BCMA (in-house; Cat# …); test: SPR, Fc-BCMA, two-state model, step 1 (kon1); first step (kon1)
# [7] = molecular target: T1, Recombinant human BCMA-Fc fusion …; test: SPR, Fc-BCMA, two-state model, step 1 (koff1); first step (koff1)
# [8] = molecular target: T1, Recombinant human BCMA-Fc fusion …; test: SPR, Fc-BCMA, two-state model, step 2
# [9] = molecular target: T1, Recombinant human BCMA-Fc fusion …; test: SPR, Fc-BCMA, two-state model, first complex
# [10] = molecular target: T1, Recombinant human BCMA-Fc fusion …; test: SPR, Fc-BCMA, two-state model, Final KD; Final complex KD, two-state model
# [11] = molecular target: T1, Recombinant human BCMA-Fc fusion …; test: SPR, Fc-BCMA, two-state model, step 1 (kon1); first step (kon1)
# [12] = molecular target: T1, Recombinant human BCMA-Fc fusion …; test: SPR, human Fc-BCMA
binder,measurement,setting,value
B1,koff,[1],0.00417 s⁻¹
same,fold tighter affinity than BCMB72,[2],2 fold
same,koff2,[3],0.000415 s⁻¹
same,kon2,[3],0.0015 s⁻¹
same,KD1,[4],3.04 nM
same,Kd,[5],0.65 nM
same,kon,[6],1.38e+06 M⁻¹ s⁻¹
B2,koff,[7],0.00205 s⁻¹
same,koff,[1],0.00423 s⁻¹
same,fold tighter affinity than BCMB72,[2],3 fold
same,koff2,[8],0.000364 s⁻¹
same,kon2,[8],0.00506 s⁻¹
same,koff2,[3],0.000376 s⁻¹
same,kon2,[3],0.0016 s⁻¹
same,KD1,[9],0.79 nM
same,KD1,[4],1.94 nM
same,Kd,[10],0.05 nM
same,Kd,[5],0.37 nM
same,kon,[11],2.58e+06 M⁻¹ s⁻¹
same,kon,[6],2.18e+06 M⁻¹ s⁻¹
B3,koff,[7],0.00132 s⁻¹
same,koff,[1],0.00683 s⁻¹
same,fold weaker affinity than BCMB72,[12],2 to 3 fold
same,koff2,[8],0.000689 s⁻¹
same,kon2,[8],0.00252 s⁻¹
same,koff2,[3],0.000395 s⁻¹
same,kon2,[3],0.00147 s⁻¹
same,KD1,[9],0.58 nM
same,KD1,[4],3.56 nM
same,Kd,[10],0.12 nM
same,Kd,[5],0.75 nM
same,kon,[11],2.26e+06 M⁻¹ s⁻¹
same,kon,[6],1.93e+06 M⁻¹ s⁻¹
B4,koff,[7],0.00129 s⁻¹
same,koff,[1],0.00831 s⁻¹
same,fold weaker affinity than BCMB72,[12],2 to 3 fold
same,koff2,[8],0.000557 s⁻¹
same,kon2,[8],0.00129 s⁻¹
same,koff2,[3],0.000337 s⁻¹
same,kon2,[3],0.00146 s⁻¹
same,KD1,[9],0.72 nM
same,KD1,[4],5.65 nM
same,Kd,[10],0.22 nM
same,Kd,[5],1.06 nM
same,kon,[11],1.78e+06 M⁻¹ s⁻¹
same,kon,[6],1.48e+06 M⁻¹ s⁻¹
